The target in this assay is MdtJ-His6 (Lawsonia intracellularis MdtJ, orphan, Cys-less). The assay is described as follows: size exclusion chromatography with densitometry of blot fractions. The following applies: parent: est. 36; read off a plot.

Take “FtsH-His6 (E. coli FtsH, wild type) (from UniProt P0AAI3) S2K; K6A; N7L; Q23L”: the response was found to be 11%.

Values taken from publication PMC13039401.
